This is an account of results in EP0571085A1 (BAYLOR COLLEGE OF MEDICINE, dated 1993).

B1: human creatine kinase B subunit (wild-type) (enzyme)
chain: not shown
notes: One subunit (monomer) that associates into dimers; Tested in crude detergent extracts of transfected COS cells; also called B creatine kinase; B CK
B2: human creatine kinase M subunit (wild-type) (enzyme)
chain: not shown
notes: One subunit (monomer) that associates into dimers; Tested in crude detergent extracts of transfected COS cells; also called M creatine kinase; M CK

Data set [1] has as its target B2. Briefly: nondenaturing electrophoresis of extracts of COS cells cotransfected with all three constructs.
Data set [2] deals with the molecule itself. Briefly: nondenaturing electrophoresis of extracts of COS cells cotransfected with M, B and lys⁻M constructs.
Data set [3] deals with the molecule itself. Briefly: nondenaturing electrophoresis of extracts of COS cells cotransfected with M, mutant M and B constructs (dimer formation).

Turning to B1, the binding result in data set [1] and in data set [2] was “binds” in each case.
Turning to B2, in data set [3], the binding result was “binds”.
